According to publication PMC5384396 (Oncoimmunology, 2017):

Experiments:
[1] = target: T1, hGITR on hGITR-transfected Jurkat cells (human, UniProt Q9Y5U5 26-241); assay: cell-based or functional assay
T1 sequence: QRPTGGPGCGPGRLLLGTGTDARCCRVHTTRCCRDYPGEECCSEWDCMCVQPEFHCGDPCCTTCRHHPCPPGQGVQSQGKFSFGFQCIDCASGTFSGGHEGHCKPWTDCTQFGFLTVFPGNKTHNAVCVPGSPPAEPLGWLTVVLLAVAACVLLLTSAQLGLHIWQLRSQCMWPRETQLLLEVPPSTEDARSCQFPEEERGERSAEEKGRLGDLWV

[2] = target: the molecule itself

B1: hGITRL FP with the yeast GCN4 pII trimerization domain (Fc fusion)
chain: not shown
- NFκB-luciferase reporter in hGITR-transfected Jurkat cells, agonism EC50 [1]: 0.89 nM
- stoichiometry N [2]: 6
